Measurements as given in US20220396635A1 (UNIVERSIT T STUTTGART, published 2022).

Legend:
HER3 [1] = target: T1, HER3 (UniProt P21860 20-1342, limits assumed); assay: cell-based or functional assay
HER3 [2] = target: T1, HER3; assay: cell-based or functional assay; remark: listed apart in the source
HER3 [3] = target: T1, HER3; assay: flow cytometry, serial dilution on FaDu cells (HER3-expressing), PE anti-His detection
Protocol: (§1) Cell binding studies were performed by flow cytometry using cell lines with different expression levels of HER3 (Table 1). Adherent cells were washed with PBS and shortly trypsinized at 37° C. Trypsin was quenched with FCS-containing medium and removed by centrifugation (500×g, 5 min.). 1×10⁵ target cells (MCF-7, Jurkat, BT-474, FaDu, or LIM1215) were incubated with a serial dilution of recombinant proteins for 1 hour at 4° C. Bound protein was detected using a PE-conjugated anti-hexahistidyl tag mAb (Miltenyi Biotec). Incubation and washing steps were performed in PBS, 2% FBS, and 0.02% sodium azide. Fluorescence was measured by MACSQuant VYB (Miltenyi Biotec) and data were analyzed using FlowJo (Tree Star). Relative median fluorescence intensities (MFI) were calculated as followed: relative MFI=((MFIₛₐₘₚₗₑ−(MFIdetection−MFIcells))/MFIcells).

CD3 = target: T2, CD3 (UniProt P07766 23-207); assay: flow cytometry, serial dilution on Jurkat cells (CD3-expressing), PE anti-His detection
T2 construct: whole, on cells; on cells it stands in the TCR/CD3 complex; also called CD3 on Jurkat cells
Protocol: as §1

HER3 [4] = target: T1, HER3; assay: flow cytometry, serial dilution on MCF-7 cells (HER3-expressing), PE anti-His detection
Protocol: as §1

HER3 [5] = target: T1, HER3; assay: flow cytometry, serial dilution on BT-474 cells (HER3-expressing), PE anti-His detection
Protocol: as §1

HER3 [6] = target: T1, HER3; assay: flow cytometry, serial dilution on LIM1215 cells (HER3-expressing), PE anti-His detection
Protocol: as §1

HER3 [7] = target: T1, HER3; assay: flow cytometry on HER3-expressing cell lines, EC50 compared with scDb-scFv
Protocol: as §1

Binder | EC50 of CD69 expression on CD4+ T-cells (CD4+CD69+), MCF-7 co-culture (HER3 [1]) [nM] | EC50 of CD69 expression on CD8+ T-cells (CD8+CD69+), MCF-7 co-culture (HER3 [1]) [nM] | EC50 of IFN-γ release, PBMCs co-cultured with MCF-7 cells (HER3 [1]) [nM] | EC50 of IL-2 release, PBMCs co-cultured with MCF-7 cells (HER3 [1]) [nM] | EC50 of proliferation of CD4+ T-cells, MCF-7 co-culture (HER3 [1]) [nM] | EC50 of proliferation of CD8+ T-cells, MCF-7 co-culture (HER3 [1]) [nM] | EC50 of PBMC cytotoxicity on BT-474 cells, E:T 5:1 (HER3 [2]) [nM] | EC50 of PBMC cytotoxicity on BT-474 cells, E:T 10:1 (HER3 [2]) [nM] | EC50 of PBMC cytotoxicity on FaDu cells, E:T 5:1 (HER3 [2]) [nM] | EC50 of PBMC cytotoxicity on FaDu cells, E:T 10:1 (HER3 [2]) [nM] | EC50 of PBMC cytotoxicity on LIM1215 cells, E:T 5:1 (HER3 [2]) [nM] | EC50 of PBMC cytotoxicity on LIM1215 cells, E:T 10:1 (HER3 [2]) [nM] | EC50 of PBMC cytotoxicity on MCF-7 cells, E:T 5:1 (HER3 [2]) [nM] | EC50 of PBMC cytotoxicity on MCF-7 cells, E:T 10:1 (HER3 [2]) [nM] | EC50 (HER3 [3]) [nM] | EC50 (CD3) [nM] | EC50 (HER3 [4]) [nM] | EC50 (HER3 [5]) [nM] | EC50 (HER3 [6]) [nM] | fold weaker binding than scDb-scFv (HER3 [7]) [fold]
scDb3-43xhuU3-scFv3-43-His (bispecific antibody, Single chain, trivalent: two HER3 sites (3-43) and one CD3 site (huU3); The His tag is part of the entry; also called scDb-scFv; trivalent anti-HER3×anti-CD3 bsAb) QVQLQQSGPGLVKPSQTLSLTCAISGDSVSSNRAAWNWIRQSPSRGLEWLGRTYYRSKWYNDYAQSLKSRITINPDTPKNQFSLQLNSVTPEDTAVYYCARDGQLGLDALDIWGQGTMVTVSSGGGGSDIQMTQSPSSLSASVGDRVTITCRASQDIRNYLNWYQQKPGKAPKLLIYYTSRLHSGVPSRFSGSGSGTDFTFTISSLQPEDIATYYCQQGNTLPWTFGQGTKLEIKRGGGGSGGGGSGGGGSQVQLVQSGAEVKKPGSSVKVSCKASGGTFSGYTMNWVRQAPGQGLEWMGLINPYKGVSTYNGKFKDRVTITADKSTSTAYMELSSLRSEDTAVYYCARSGYYGDSDWYFDVWGQGTLVTVSSGGGGSQAGLTQPPAVSVAPGQTASITCGRDNIGSRSVHWYQQKPGQAPVLVVYDDSDRPAGIPERFSGSNYENTATLTISRVEAGDEADYYCQVWGITSDHVVFGGGTKLTVLAAAGGSGGGGSGGGTQVQLQQSGPGLVKPSQTLSLTCAISGDSVSSNRAAWNWIRQSPSRGLEWLGRTYYRSKWYNDYAQSLKSRITINPDTPKNQFSLQLNSVTPEDTAVYYCARDGQLGLDALDIWGQGTMVTVSSGGGGSGGGGSGGGGSQAGLTQPPAVSVAPGQTASITCGRDNIGSRSVHWYQQKPGQAPVLVVYDDSDRPAGIPERFSGSNYENTATLTISRVEAGDEADYYCQVWGITSDHVVFGGGTKLTVLGSLHHHHHH | 0.003 | 0.02 | 0.567 | 0.403 | 0.08 | 0.09 | 0.002 | 0.007 | 0.2 | 0.1 | 0.003 | 0.001 | 0.003 | 0.001 | 0.1 | 4 | 0.03 | 0.2 | 0.2 | –
scDb3-43xhuU3-His (bispecific antibody, Single-chain diabody, bivalent: one HER3 site (3-43) and one CD3 site (huU3, humanized UCHT1); The His tag is part of the entry; also called anti-HER3×CD3 bispecific scDb) QVQLQQSGPGLVKPSQTLSLTCAISGDSVSSNRAAWNWIRQSPSRGLEWLGRTYYRSKWYNDYAQSLKSRITINPDTPKNQFSLQLNSVTPEDTAVYYCARDGQLGLDALDIWGQGTMVTVSSGGGGSDIQMTQSPSSLSASVGDRVTITCRASQDIRNYLNWYQQKPGKAPKLLIYYTSRLHSGVPSRFSGSGSGTDFTFTISSLQPEDIATYYCQQGNTLPWTFGQGTKLEIKRGGGGSGGGGSGGGGSQVQLVQSGAEVKKPGSSVKVSCKASGGTFSGYTMNWVRQAPGQGLEWMGLINPYKGVSTYNGKFKDRVTITADKSTSTAYMELSSLRSEDTAVYYCARSGYYGDSDWYFDVWGQGTLVTVSSGGGGSQAGLTQPPAVSVAPGQTASITCGRDNIGSRSVHWYQQKPGQAPVLVVYDDSDRPAGIPERFSGSNYENTATLTISRVEAGDEADYYCQVWGITSDHVVFGGGTKLTVLAAAHHHHHH | 0.1 | 0.16 | 0.609 | 0.404 | 0.5 | 0.3 | 0.17 | 0.2 | 0.4 | 0.3 | 0.08 | 0.03 | 0.07 | 0.014 | – | 1.64 | 4.7 | 9.7 | 11.7 | ≤ 50
